From patent US20260103522A1 (published 2026) come the findings set out here.

T1: recombinant human FcεRIa extracellular region-mouse IgG2a Fc-6×His fusion protein (human, UniProt P12319 26-205)
T1 chain (part 1 of 2): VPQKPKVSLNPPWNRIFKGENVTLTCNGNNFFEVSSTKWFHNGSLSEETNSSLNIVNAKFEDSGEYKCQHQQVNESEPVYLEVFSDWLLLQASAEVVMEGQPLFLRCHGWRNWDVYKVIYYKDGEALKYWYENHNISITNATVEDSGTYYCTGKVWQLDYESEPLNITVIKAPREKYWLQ
T1 chain (part 2 of 2): HHHHHH

T2: recombinantly expressed human FcεRIa-Fc protein (human, UniProt P12319 26-205)
T2 chain: T1 chain (part 1 of 2)

B1: binding protein DB365 (designed binder)
chain: TKKCADSNPRGVSVFLFPPKPKDTLMISRTPEVTCVVVDLAPSKGTVKFNWYVDGVEVHNAKTKPREKQRNGTLTVVSVLTVLHQDWLNGKEYKCKVTHPHLPRALEKTISKAKGQPREPQVYTLPPSREEMTKNQVSLTCLVKGFYPSDIAVEWESNGQPENNYKTTPPVLDSDGSFFLYSKLTVDKSRWQQGNVFSCSVMHEALHNHYTQKSLSLSPGK
B2: Her2-specific binding protein DB872 (antibody)
heavy: EVQLVESGGGLVQPGGSLRLSCAASGFTFTDYTMDWVRQAPGKGLEWVADVNPNSGGSIYNQRFKGRFTLSVDRSKNTLYLQMNSLRAEDTAVYYCARNLGPSFYFDYWGQGTLVTVSSASTKGPSVFPLAPSSKSTSGGTAALGCLVKDYFPEPVTVSWNSGALTSGVHTFPAVLQSSGLYSLSSVVTVPSSSLGTQTYICNVNHKPSNTKVDKKVEPKSCDKTHTCPPCPADSNPRGVSVFLFPPKPKDTLMISRTPEVTCVVVDLAPSKGTVKFNWYVDGVEVHNAKTKPREKQRNGTLTVVSVLTVLHQDWLNGKEYKCKVTHPHLPRALEKTISKAKGQPREPQVYTLPPSREEMTKNQVSLTCLVKGFYPSDIAVEWESNGQPENNYKTTPPVLDSDGSFFLYSKLTVDKSRWQQGNVFSCSVMHEALHNHYTQKSLSLSPGK
light: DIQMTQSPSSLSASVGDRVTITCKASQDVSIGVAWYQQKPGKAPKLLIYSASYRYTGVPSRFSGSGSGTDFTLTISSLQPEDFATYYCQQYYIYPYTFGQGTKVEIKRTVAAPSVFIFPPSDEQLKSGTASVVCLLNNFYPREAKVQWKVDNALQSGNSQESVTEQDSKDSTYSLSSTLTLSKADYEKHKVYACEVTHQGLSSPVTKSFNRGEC
B3: Her2-specific binding protein DB871 (antibody)
heavy: EVQLVESGGGLVQPGGSLRLSCAASGFTFTDYTMDWVRQAPGKGLEWVADVNPNSGGSIYNQRFKGRFTLSVDRSKNTLYLQMNSLRAEDTAVYYCARNLGPSFYFDYWGQGTLVTVSSASTKGPSVFPLAPSSKSTSGGTAALGCLVKDYFPEPVTVSWNSGALTSGVHTFPAVLQSSGLYSLSSVVTVPSSSLGTQTYICNVNHKPSNTKVDKKVEPKSCSRDFTPPTVKILQSSCDGGGHFPPTIQLLCLVSGYTPGTINITWLEDGQVMDVDLSTASTTQEGELASTQSELTLSQKHWLSDRTYTCQVTYQGHTFEDSTKKCADSNPRGVSVFLFPPKPKDTLMISRTPEVTCVVVDLAPSKGTVKFNWYVDGVEVHNAKTKPREKQRNGTLTVVSVLTVLHQDWLNGKEYKCKVTHPHLPRALEKTISKAKGQPREPQVYTLPPSREEMTKNQVSLTCLVKGFYPSDIAVEWESNGQPENNYKTTPPVLDSDGSFFLYSKLTVDKSRWQQGNVFSCSVMHEALHNHYTQKSLSLSPGK
light: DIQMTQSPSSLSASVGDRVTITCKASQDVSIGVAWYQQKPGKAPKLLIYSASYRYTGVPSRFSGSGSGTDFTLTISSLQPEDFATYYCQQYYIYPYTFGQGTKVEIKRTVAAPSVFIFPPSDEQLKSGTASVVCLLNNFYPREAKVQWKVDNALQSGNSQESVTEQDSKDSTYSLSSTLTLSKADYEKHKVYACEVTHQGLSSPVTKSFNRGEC
B4: binding protein DB366 (designed binder)
chain: CADSNPRGVSVFLFPPKPKDTLMISRTPEVTCVVVDLAPSKGTVKFNWYVDGVEVHNAKTKPREKQRNGTLTVVSVLTVLHQDWLNGKEYKCKVTHPHLPRALEKTISKAKGQPREPQVYTLPPSREEMTKNQVSLTCLVKGFYPSDIAVEWESNGQPENNYKTTPPVLDSDGSFFLYSKLTVDKSRWQQGNVFSCSVMHEALHNHYTQKSLSLSPGK
B5: binding protein DB-B64 (designed binder)
chain: CPAPELLGGPSVFLFPPKPKDTLMISRTPEVTCVVVDLAPSKGTVKFNWYVDGVEVHNAKTKPREKQRNGTLTVVSVLTVLHQDWLNGKEYKCKVTHPHLPRALEKTISKAKGQPREPQVYTLPPSREEMTKNQVSLTCLVKGFYPSDIAVEWESNGQPENNYKTTPPVLDSDGSFFLYSKLTVDKSRWQQGNVFSCSVMHEALHNHYTQKSLSLSPGK
B6: binding protein DB364 (designed binder)
chain: DFTPPTVKILQSSCDGGGHFPPTIQLLCLVSGYTPGTINITWLEDGQVMDVDLSTASTTQEGELASTQSELTLSQKHWLSDRTYTCQVTYQGHTFEDSTKKCADSNPRGVSVFLFPPKPKDTLMISRTPEVTCVVVDLAPSKGTVKFNWYVDGVEVHNAKTKPREKQRNGTLTVVSVLTVLHQDWLNGKEYKCKVTHPHLPRALEKTISKAKGQPREPQVYTLPPSREEMTKNQVSLTCLVKGFYPSDIAVEWESNGQPENNYKTTPPVLDSDGSFFLYSKLTVDKSRWQQGNVFSCSVMHEALHNHYTQKSLSLSPGK
B7: binding protein DB177 (designed binder)
chain: CSRDFTPPTVKILQSSCDGGGHFPPTIQLLCLVSGYTPGTINITWLEDGQVMDVDLSTASTTQEGELASTQSELTLSQKHWLSDRTYTCQVTYQGHTFEDSTKKCADSNPRGVSVFLFPPKPKDTLMISRTPEVTCVVVDLAPSKGTVKFNWYVDGVEVHNAKTKPREKQRNGTLTVVSVLTVLHQDWLNGKEYKCKVTHPHLPRALEKTISKAKGQPREPQVYTLPPSREEMTKNQVSLTCLVKGFYPSDIAVEWESNGQPENNYKTTPPVLDSDGSFFLYSKLTVDKSRWQQGNVFSCSVMHEALHNHYTQKSLSLSPGK
B8: binding protein DB-B63 (designed binder)
chain: B4 chain with K45N, K93R

Where a chain is given by its changes, count along the chain named.

One test concerns the target T1, recombinant human FcεRIa extracellular …. Put plainly: BLI. A general note: BLI is a label-free optical method that tracks binding on a fibre tip over time.
Take B1: the Kd (usually a measure of binding affinity in units of concentration) came out at 0.719 nM.
Turning to B2, the Kd is 1.81 nM.
As to B3, the Kd is 1.91 nM.
On the same count and under the same terms, with B4 the figure was 1.68 nM.
Turning to B5, the Kd was 4.68 nM.
On the same count and under the same terms, with B6 the figure was 1.78 nM.

Another test concerns the target T2, recombinantly expressed human FcεRIa-Fc …. The test is described as follows: blocking ELISA; blocking human IgE binding. A general note: An ELISA detects its analyte on a solid surface through an enzyme-linked reagent.
Take B1: the concentration for half-maximal inhibition (IC50) (as a rule, the concentration that gives 50% inhibition) was determined as 12.8 nM.
The same measure, in the same setting: in the case of B4 it was 16.2 nM.
Still for that read-out and setting: in the case of B6 it was 15.7 nM.
The same measure, in the same setting: in the case of B7 it was 18.4 nM.

The target is the same in another test. Put plainly: blocking ELISA; blocking human IgE binding. The source holds these as a separate data set.
In the case of B2, the IC50 stood at 77.4 nM.
Same read-out and setting: in the case of B3 it was 61.2 nM; in that of B4, 59.7 nM.

The target is the same in another test. The test is described as follows: blocking ELISA; blocking human IgE binding. This is another data set of the same source.
As to B4, the EC50 (in general, the concentration at which the effect is half-maximal) was found to be 8.94 nM.
As for B8, the EC50 came to 6.52 nM.
Still for that read-out and setting: with B5 the figure was 24.5 nM.
